Results reported in a protein production outcome set (Wang et al. 2014).

Assay: label from the status in PepcDB records

In the case of “MTDTHTCLTAKDFTSNQEPKWCPGCGDFMVLQQLKNAMAELCLKTEEVVVVSGIGCSSRLPYYINTYGVHGIHGRAMAMASGLKVARPDLSVWVGTGDGDALSIGGNHYIHTVRRNLDINVVLFNNEIYGLTKGQYSPTSKVGLRTVTSPTGVVDYPINTIALTLGAGGTFVARVMDRDGKLMKEIFKRAHNHKGTSIVEIYQNCPIFNDGAFRAFSDKERKDDTTLYLEQGQPLVFGANGSKGIYLDGFKPTVIDLEKSGVSKDDLWIHDENDLIKANILSRFFDDPNSTEEFLPRPFGIFYVEDRFTYEQALSAQIDKAQEKGEGTLEELLAGNSTWTIN”, the protein production is reported as “failed”.

With “MQGFTAYLVGFAIVAGFAVALGFIFGIFNQIVAQLNTDPNNPMISQEFVDAINLAQSLGGTGLTLAIAALIVGLAMLLIAVIRSYSGV” the protein production was “failed”.

For “MGKMEPFRATGDGLFIMNEGNFQYGNATLSYYDPETKKVENEIFYRANAMKLGDVAQSMIVRDTIGWVVVNNSHVIFAISTNTFKEVGRITGLTSPRYIHFISDEKAYITQIWDYRIFIVNPKTYQITGYIECPDMTMETGSTEQMVQYGKYVYVNCWSYQNRILKIDTTTDKVVDQLTVGIQPTSLVMDKNFKMWTITDGGYKGSPYGYEEPSLYRIDAETFKIEKQFKFQLGDAPSEVQLNGAGDELYWINKDIWRMSVDEERVPVRPFLKYRDTKYYGLTVSPKNGDVYVADAIDYQQQGMIYRYTEDGELVDEFYVGIIPGAFCWKLEHHHHHH”, the protein production was “not failed”.

With “MEEAKGPVKHVLLASFKDGVSPEKIEELIKGYANLVNLIEPMKAFHWGKDVSIENLHQGYTHIFESTFESKEAVAEYIAHPAHVEFATIFLGSLDKVLVIDYKPTSVSL” the protein production was “not failed”.

With “QLRDFSSIIQTCSGNIQRISQATAQIKNLMSQLGTKQDSSKLQENLQQLQHSTNQLAKETNELLKELGSLPLPLSTSEQRQQRLQKERLMNDFSAALNNFQAVQRRVSEKEKESIAR” the protein production was “not failed”.

In the case of “MNKMLYGWLLAACCGLPPAFAGDSVDVLAQPALHGPQALRAVLQDVARADARLVAVGERGVVLLSDDNGATWRQATAVPVGVSLTAVQFIDARNGWAVGHAGVVLHSQDGGEHWSVQLDGKRAAALEVQAAEAAADERRLAAAQRLLADGADKPLLALNFTDARNGLVVGAYGVAMRTDDGGRSWQSEIGRLPNGRGLHLYALARQGNQVYIAGEQGLLLRSRDGGEHYEALHGPYDGSYFAATVLPDGRLLLGGLRGSLFASDDGGDSFQALANPTPASINGLRVAGGQLLLANQAGMLLRSGLGAFAAQPVAVSDGLPLTAATTAADGSIVAVGMAGARRLEPSSLEHHHHHH”, the protein production is reported as “failed”.

For “MEVLKDFLLFYGGLFAITNPIGAVPVFIAVTRNLSPEKRKEIARKTSTTVMVTLLVFALVGEWIFKFFGASTDAFSIAGGIILFRMSLEMLSGKLSSVKISEEEEHISEEAVTLEEVAIIPLAIPLLSGPGAITTTMLYMAKSSTMIEKSIVLLVVVAIGITVWIILSAANRIHQKLGTIGIKVMTRMMGLILASMAVQMVINGVKGAFNI”, the protein production was “failed”.

In the case of “MSNMEKHLFNLKFAAKELSRSAKKCDKEEKAEKAKIKKAIQKGNMEVARIHAENAIRQKNQAVNFLRMSARVDAVAARVQTAVTMGKVTKSMAGVVKSMDATLKTMNLEKISALMDKFEHQFETLDVQTQQMEDTMSSTTTLTTPQNQVDMLLQEMADEAGLDLNMELPQGQTGSVGTSVASAEQDELSQRLARLRDQV”, the protein production is reported as “not failed”.

In the case of “MPVCILLLRFRDDVHNERFYTLVGIFIVGALCLMILGGTFFYIEYKRAQKQTFVMFFKGSLKGLVTTAPVTYRGVKIGEVKVIEITENKEHSKVLIPVYVQFFVERTYGFSQDPIHLLIDNGYVANITKPNLLTGVAEIELIKPTPAVKYKQTYYHSYPVFPTHNSAEKYTSMEEAFEAAKKAFEDVSELVRSKEIQDTLEAIQKVSENLGQLASSLNQDVPSVVAYLNQSLKQITSAAYSTQNLTDYLSRYPESLLRGKRLEHHHHHH”, the protein production is reported as “failed”.

For “MAQSNSRETFSSRLGFILAAAGAAVGLGNIWGFPTQAASNGGGAFLLVYLILIFVVAFPMLVVEMAIGRYGQANPVDSMRSLTSQPAAKKVGGFVGWVGLSVPSAVLAFYSIVGGWIICFLLGAMTDLFGFTAASAWLKGFSVERNLFGTLIFYVLTILIVQGGVKQGIERWSTRLMPALFVLFAVLFIYIMTQQGAWEGLKHYLIPDFEKVWDRKLILAAMGQGFFSLTIGGCSMLIYGSYLSKKENLPKMAMSVTLVDTAVAFIAGLVVLPAMFVAMNKGVQIYAQDGSLLSSDTLVFTVLPLMFDSLGLLGQIFAMVFFLLLTIAALTSSISMLECPVALVGERFNTRRTPTSWVLGGLIALFSVVIVYNFGALFGLVATLATQYLQPTAALMFCLFGGWVWQRDAKMKELQAGFPELQQSLFGKIWPWYVKFVCPVLVATVIWASFG”, the protein production was “failed”.

In the case of “DYSQKLQNLISEQLVGCGFNEILNNSLTAASYYEGSETYKNENLVYLMNPLSNDLNVMRQTLLFGGLESIQHNANRKNADLKFFEFGNCYFYNAEKKNPEKVLAAYAEEYHLGLWVTGKRVSNSWAHPDENSSVYELKAYVLNIFTRLGLNFGNVVFGNLTNDIYSTAISVHTRGGKLLATFGIISKKIQKAFDIDNEVYYAEINWKELM”, the protein production is reported as “not failed”.

In the case of “MIIGIDLGTTNSAVAYIDDSGNPTILPNREGERVTPSVIFFEDGSPVIGSTAKSISVSDPTNTVQFVKRQMGNASYKFPIGGEVFTPEDLSALILKRLKEDAEEAIGAKVTKAVITVPAYFDDAQRKATQDAGRIAGLHVLKVINEPTAAALAYGLANREQKQNVMVYDLGGGTFDVTLIQLNQDEVVVKATGGDRNLGGFDFDNKIFELVEQKFEEEHGLDLYDDLNAVQDLREKAEACKKMLSSRKKSVITLSSQGRTVKVEVTKEKFDELLSPLLSRTALIMKNVLMDAELSWGDIDKIVLVGGSTRVPAVSDLIERTTGIKPSKDVNPDEVVALGAAIQGSLLQVDNEASNNAEEFKPKTRVVDVNSHSLGILIHDNNTGGFINQKMIVRNTPIPASEEAVFYTVNDGQTSLHVQVTEGEDSDPDFVKVIGESNLDLRGSKPQGYPVRFIFTYDENGVVHVYGKDENTGQHLGEMQIERKSNLTEAAIEKKAEKLAGISVE”, the protein production is reported as “failed”.

In the case of “MVTSSSMRRCRGALSLSFWIFLVLRSVLSRPVFGAAAGPAVQSARQCSASRGTGESDPPPFQPTLRLFPPSRRRRSYCRAMTPSRPSPDFPDGGFVQVRGARQHNLKDISVKVPRDALVVFTGVSGSGKSSLAFGTLYAEAQRRYLESVSPYARRLFNQAGVPDVDAIDGLPPAVALQQARGTPTARSSVGSVTTLSNLLRMLYSRAGDYPPGQGIVYAEGFSPNTPEGACPECHGLGRVYTVTEDSMVPDPSLTIRERAVAAWPQAWGGQNQRDILVTLGIDVDVPWRELPEETRHWILFTDEQPVVPVYPGLTPAETQRALKKKMEPSYMGTFSSARRHVLHTFANTESASMKKRVQGYMISEECPLCHGKRLRQEALNVTFAGLDITELSRLPLARVSELLRPYAEEREPGHAERVKNRPEQAIALQRMAADLVKRLDVLLHLGLGYLGLDRSTPTLSPGELQRLRLATQLYSNLFGVVYVLDEPSAGLHPADTEALLSALENLKRGGNSLFVVEHDLDVIRRADWLVDVGPEAGEKGGEILYSGPPEGLKHVPESQTGQYLFADRHTEPHTPREPAGWLELNGVTRNNLDNLDVRFPLGVMTSVTGVSGSGKSTLVSQALVDALAAHFGQPVNPDPEDDEDPADHTAGSARLGGDLAQITRLVRVDQKPIGRTPRSNMATYTGLFDQVRKLFAATPLAKKRGYNAGRFSFNVKGGRCEHCQGEGWVMVELLFLPSVYAPCPVCHGTRYNAETLEVEYRGKNIADVLALTVDEAHDFFADESAIFRALDTLREVGLGYLRLGQPATELSGGEAQRIKLATELQRSGRGGTVYVLDEPTTGLHPADVERLQRQLVKLVDAGNTVIAVEHKMQVVAASDWVLDIGPGAGEDGGRLVAQGTPAEVAQAAGSVTAPYLRAALR”, the protein production is reported as “failed”.

For “MKIFNLLVGGAPENLPDNLNDFEGDWIGVDRGALKLIEMGLIPEVAVGDFDSVNDQEFKEIEANAKQVIKLDPVKDDTDTESGLKYALDHDPRAHIRVLGISGGRLDHLLANVLMVLQDRFRMFAEQIELIDRQNNIRFFNSGKHTVDKLEGFKYLSFIPLTQIDVLTLDDEKYELHNAMVSNARAYVSNEFIDSKATVYLSNGLVAVIQSKD”, the protein production was “failed”.

In the case of “MATIQAFWRFSRPHTIIGTTLSVWAVYLLTILGDGNSVNSPASLDLVFGAWLACLLGNVYIVGLNQLWDVDIDRINKPNLPLANGDFSIAQGRWIVGLCGVASLAIAWGLGLWLGLTVGISLIIGTAYSVPPVRLKRFSLLAALCILTVRGIVVNLGLFLFFRIGLGYPPTLITPIWVLTLFILVFTVAIAIFKDVPDMEGDRQFKIQTLTLQIGKQNVFRGTLILLTGCYLAMAIWGLWAAMPLNTAFLIVSHLCLLALLWWRSRDVHLESKTEIASFYQFIWKLFFLEYLLYPLALWLPNFSNTIF”, the protein production is reported as “failed”.

With “MIAAAWIAVTAALYAAARALHRRFPRPWLTPLLVVPGALAAVLLAARVPYPGYMRGGRLLVDLLGPATVAFALPLHRHAGLLRRHAAELCAGILAGCAVAVGSSFLLARALGLGRPLALSLAPRSITTPFAMQVAGDLGGVPALAAVFVILTAVVGLVVGQLLLRWLPLRSAVARGALFGMGAHAAGTAQAMELGRVEGAVAGVVMIVAGLGVLVATPLLRLAL” the protein production was “failed”.

In the case of “MELIRFSISIPSKLLEKFDQIIEEIGYENRSEAIRDLIRDFIIRHEWEVGNEEVAGTITIVYNHDEGDVVKALLDLQHEYLDEIISSLHVHMDEHNCLEVIVVKGEAKKIKMIADKLLSLKGVKHGKLVMTSTGKELV”, the protein production is reported as “not failed”.

In the case of “MSILDTLKTPVIVAPMAGGPSTPALVNAAAEAGSLGFLAGGVMPLEQLKQELSEVKGVFGVNLFRPQTDAPKPSDIDELAGLLSSAFRQFGLDEPTVPTPDLSNGWEAKFEAVLAAKPAVFSCTFGIFSAEEFARIKATGIEAWVTVTNPEDALAAQKAGANALVVQGPEAGGHRSTWSIEVEPDERDLKTLLAAVKQAGVYLPLIAAGGLSTSADVAAILEAGASAASCGSAFLLSDEAGTSSLNREILDAAPALGLESVSSRAFSGRYARGVETRFTRSNEGLPPLYPYLNPMITSLRKVAGSAGNWDYAYCLVGVGLESIAKGSAKQILESLTPSALG”, the protein production is reported as “failed”.

In the case of “MSLWLTHPLFLPSLIVGVTIVLWATSLLPEFITALLFFAAAMMAKIAPPEVIFGGFASSAFWLVFSGFVLGIAIRKTGLADRAAQALSARLTDSWPRMVASVVLLSYALAFVMPSNMGRIALLMPIVAAMARRAGIADGSRGWFGLALAVGFGTFQLSATILPANVPNLVMSGAAEGSYGIHLNYVPYLLLHTPVLGWLKGAVLVALICWLFPGKPHPPRDLAPLPPMSRDEKRLAWLLAVVLSLWVTESWHGVGPAWTGLAAAVITLLPRVGFINGEEFASGVNMRTCIYVAGILGLAIAVTQTGIGGAVGNALLQVMPLDKDNPFTSFLALTGITSALNFIMTANGVPALYTTFAQSFADATGFPLLSVIMIQVLGYSTPLLPYQASPIVVAMGLGKVPARAGMQLCLALAAVSYLILLPLDYAWYQLLGKL”, the protein production is reported as “failed”.

In the case of “TIDRGIQTQIESLVERWNSEFKRSDIRNLAILVIDIRTNQAIAYCGNVHFDKEQSGNQVDVIRSPRSTGSILKPFLYYAMLQEGEILPNTLLPDIPVNINGFTPQNFNLQFEGAVPASEAIARSLNIPSVTMLQRYGVPKFHSFLKQIGLTTLNRPSSHYGLSLILGGAEATLWDITSAYANMGRSLNRLPQFPCTLLLSDSTSVHRPSFQSGAVWQTFDAIKEVNRPEEIDWRTIPSMQTIAWKTGTSYGFRDAWAVGVTPKYAVGVWVGNATGEGKPGLVGARTAGPVLFDVFNLL”, the protein production is reported as “failed”.

In the case of “MENRAHALAAGLFILLLGVATVMAVKWFSRDSVSYNHYFLVSAGGAVSGLNPEASVRYRGVNVGKVEEIYFDRENIRNIIVRIAVNHNVVLPGDIYAQLASQGITGLTYIELNDDVADAETKPLQNEARIPLRSSLIKTLSDSLEEILKNSNMAIRQISNLLNEQNQTHISSILSHLEQAVQHYDTLTGQLQKGLQTLPQLSSELTSTFKQTRQVMENTSQVLQKLNQQQGLVDNLTQGSLEMTRTLTSLNETGVAITQSAHKLDQLLNLLEDHPQSLVFGKPPALPGPGEPGFSPPQPGK”, the protein production is reported as “failed”.
